From patent publication US20210355220A1 (TIKCRO TECHNOLOGIES, published 2021) come the findings set out here.

For assay [1], the target named is non-recycling version of CTLA-4 on CTLA-4 effector cells (Promega CS186920) (human, UniProt P16410 36-223). Kind of assay: cell-based or functional assay.
Assay [2] addresses T1, human CTLA-4 expressed on cells (human, UniProt P16410 36-223).
T1 construct: whole, on cells; On stably or transiently transfected HEK293 cells; also called hCTLA-4; HEK293-hCTLA-4 cells
As to the kind of experiment: flow cytometry on HEK293-hCTLA-4 cells. As to the method: (§1) To test the binding of antibodies to CTLA-4 under more physiological conditions, the binding of CTLA-4 antibodies to cell-surface CTLA-4 was tested. […] The surface expression of hCTLA-4 in the obtained cell line was tested using a commercial anti-CTLA-4 antibody and compared to the parent cell line (HEK293 without transfection). […] The anti-CTLA-4 antibodies were incubated in serial dilution concentrations with the HEK293-hCTLA-4 cells for 1 hour on ice. Following a wash step, an anti-human antibody conjugated to ALEXA FLUOR® 647® was added for an additional hour. The cells were washed, and propidium iodide (PI) was added to exclude dead cells. The fluorescent signal was measured using FACS and analyzed. Dead cells were removed based on the PI signal. The population was gated based on forward and side scatter (FSC and SSC) parameters, and doublets were removed. The Median Fluorescent Intensity (MFI) of the appropriate channel was calculated for the live single cells from each group. The MFI was plotted versus antibody concentration in Prism software (V6.01) and kinetic parameters were obtained using a curve fit dose response function with four parameters. […] The lower EC₅₀ values indicate increased binding affinity to cell surface hCTLA-4.
For orientation: In flow cytometry, cells or beads pass a laser one at a time.

Assay [3] has as its target T1, human CTLA-4 expressed on cells. As to the kind of experiment: flow cytometry on HEK293-hCTLA-4 cells, reference ipilimumab. As to the method: as §1
The target in assay [4] is T2, Pig (Sus scrofa) CTLA-4 on HEK293 cells (Sus scrofa, UniProt Q9MYX7 36-223).
T2 construct: whole, on cells; also called pig CTLA-4
Kind of assay: flow cytometry on HEK293 cells transiently expressing pig CTLA-4. As to the method: (§2) Macaque (Macaca fascicularis), pig (Sus scrofa) and mouse (Mus musculus) CTLA-4 proteins were transiently expressed on the surface of HEK293 cells. […] Binding was measured using FACS and analyzed.

The target of assay [5] is T3, Mouse (Mus musculus) CTLA-4 on HEK293 cells (Mus musculus, UniProt P09793 36-223).
T3 construct: whole, on cells; also called mouse CTLA-4
As to the kind of experiment: flow cytometry on HEK293 cells transiently expressing mouse CTLA-4. How it is done:
as §2

The target in assay [6] is T1, human CTLA-4 expressed on cells. Kind of assay: flow cytometry, inhibition of CD80-mFC binding to HEK293-hCTLA-4 cells. As to the method:
(§3) As part of their activity, CTLA-4 therapeutic antibodies block the interaction between CTLA-4 and its ligands, leaving the ligands free for CD28 binding. […] First, HEK293-hCTLA-4 cells were incubated with the tested antibodies in a serial dilution for 30 minutes. […] The fluorescence was measured and analyzed. The experiment was performed in triplicate and is representative of three biological repeats.

Assay [7] concerns the target T4, Recombinant human CTLA-4-his (Sino Biologicals, 11159-H08H) (human, UniProt P16410 36-162).
T4 construct: Bought protein; also called dimer hCTLA-4; not shown: his tag
Kind of assay: SPR (Biacore T100), antibody captured on anti-human chip, CTLA-4-his in solution. How it is done:
Recombinant human CTLA-4-his (Sino Biologicals, 11159-H08H) was added in a serial 2-fold dilution, starting at a concentration of 500nM. […] The measurement was corrected using the baseline channel and the protein-antibody interaction was measured by the change in surface resonance and quantified with Biacore T100 control software (version 2.0.4).
On the technique in general: Surface plasmon resonance follows binding to a sensor surface in real time, without labels.

Assay [8] concerns the target T3, Mouse (Mus musculus) CTLA-4 on HEK293 …. Kind of assay: flow cytometry on HEK293 cells transiently expressing mouse CTLA-4, reference ipilimumab. How it is done:
as §2

The target of assay [9] is T5, Macaque (Macaca fascicularis) CTLA-4 on HEK293 cells (Macaca fascicularis, UniProt G7PL88 36-223).
T5 construct: whole, on cells; also called macaque CTLA-4
Kind of assay: flow cytometry on HEK293 cells transiently expressing macaque CTLA-4, reference ipilimumab. As to the method:
as §2

Assay [10] addresses T5, Macaque (Macaca fascicularis) CTLA-4 on …. As to the kind of experiment: flow cytometry on HEK293 cells transiently expressing macaque CTLA-4, reference tremelimumab. As to the method: as §2
The target in assay [11] is T1, human CTLA-4 expressed on cells. As to the kind of experiment: flow cytometry, inhibition of CD80-mFC binding to HEK293-hCTLA-4 cells, reference ipilimumab. As to the method: as §3
The target is the same in assay [12]. Kind of assay: flow cytometry, inhibition of CD86-mFC binding to HEK293-hCTLA-4 cells, reference ipilimumab. As to the method: as §3
Assay [13] has the same target. Kind of assay: flow cytometry, inhibition of CD80-mFC binding to HEK293-hCTLA-4 cells, reference tremelimumab. How it is done: as §3
Assay [14] deals with T4, Recombinant human CTLA-4-his (Sino …). Kind of assay: ELISA, plate coated with non-reduced CTLA-4-his (dimer), anti-human-HRP, OD450; the box beside the curves does not name the quantity, the value lies at the half-maximal point of the curve (OD450 0.2 to 1.4). How it is done:
(§4) hCTLA-4 can exist in monomer and dimer forms on the cell surface. […] The recombinant protein was incubated for 10 minutes with 100 mM DTT to reduce the protein to its monomeric form. […] The plates were coated overnight at 4° C., followed by a wash step and blocking with 20% milk for 1 hour at 37° C. […] The plate was washed and a secondary anti-human-HRP antibody (Jackson) was added at a 1:5000 dilution. A TMB solution was added, followed by stop solution and the OD at 450 nm was measured. Data was analyzed with Prism software.

In assay [15] the target is T6, CTLA-4-his reduced with 100 mM DTT to its monomeric form (human, UniProt P16410 36-162).
T6 construct: Same bought protein as the dimer, reduced with DTT before coating; also called monomer hCTLA-4; not shown: his tag
Kind of assay: ELISA, plate coated with DTT-reduced CTLA-4-his (monomer), anti-human-HRP, OD450; the box beside the curves does not name the quantity, the value lies at the half-maximal point of the curve (OD450 0.2 to 1.4). As to the method:
as §4
A general note: ELISA stands for enzyme-linked immunosorbent assay.

T4 sequence (P16410 36-162 limits assumed): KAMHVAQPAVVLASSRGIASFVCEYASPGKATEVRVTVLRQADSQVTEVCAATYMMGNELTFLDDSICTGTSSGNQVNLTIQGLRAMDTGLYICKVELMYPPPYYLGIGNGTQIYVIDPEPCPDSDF
T1 sequence (P16410 36-223): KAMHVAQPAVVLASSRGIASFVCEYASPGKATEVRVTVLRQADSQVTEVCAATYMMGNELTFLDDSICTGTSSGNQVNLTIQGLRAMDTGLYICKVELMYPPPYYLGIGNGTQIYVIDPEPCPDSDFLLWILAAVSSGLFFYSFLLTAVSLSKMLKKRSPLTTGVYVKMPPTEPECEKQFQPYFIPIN
non-recycling version of CTLA-4 on CTLA-4 effector cells (Promega CS186920), sequence (P16410 36-223): as above
T5 sequence (G7PL88 entry or part of it): as the sequence (P16410 36-223) above, with S14N, I18T, L106M counted along it
T2 sequence (Q9MYX7 36-223): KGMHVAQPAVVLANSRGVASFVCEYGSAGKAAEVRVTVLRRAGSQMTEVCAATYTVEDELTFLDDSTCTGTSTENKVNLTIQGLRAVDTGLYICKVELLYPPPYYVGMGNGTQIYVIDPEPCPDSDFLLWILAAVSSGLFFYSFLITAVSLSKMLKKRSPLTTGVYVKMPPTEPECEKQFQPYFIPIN
T6 sequence (P16410 36-162 limits assumed): as the sequence (P16410 36-162 limits assumed) above

B1: Ab55h (antibody, V domains shown)
VH: QVQLQESGPGLVKPSETLSLTCAVSGYSISGDYYWGWIRQPPGKGLEWIGSIYHSGYTYYNPSLKSRVTISVDTSKNQFSLKLSSVTAADTAVYYCARDSGWYVIAFDYWGQGTLVTVSS
VL: EIVMTQSPATLSVSPGERATLSCRASQSVSSNLAWYQEKPGQAPRLLIYGASTRATGIPARFSGSGSGTEFTLTISSLQSEDFAVYYCQQYNNWPPLTFGGGTKVEIK
notes: Human form, compared with an hIgG1 isotype control
In general, EC50 refers to the concentration giving half of the maximal effect. By IC50 is commonly meant the concentration at which inhibition is half-maximal. The low end stands for inhibition by little substance, the high end for a need for much substance. As usually defined, the Kd is the free concentration of one partner at which half of the binding sites on the other are occupied at equilibrium, for simple one-to-one binding. One may read the koff as the first-order rate constant of dissociation. In the case of B1, the “NFAT reporter EC50” value in assay [1] was 0.63 nM. In addition, the “NFAT reporter EC50, Ratio Ipilimumab:Ab55h” value in [1] is 3.65 fold. For the same molecule, the EC50 in assay [2] stood at 0.24 nM; in assay [4] it was 0.12 nM; in [5], 34 nM; in assay [14], 0.008 nM; in assay [15], 0.002 nM. For the same molecule, the “Ratio Ipilimumab:Ab55h of EC50” value turned out to be 6.1 fold in assay [3], 0.18 fold in assay [8] and 2.6 fold in assay [9]. For the same molecule, the 50% inhibitory concentration (IC50) in [6] stood at 1.6 nM. Besides, the equilibrium dissociation constant (Kd) in [7] worked out at 0.86 nM. Also, the dissociation rate constant (koff) in [7] worked out at 0.0006 s⁻¹. Besides, in [10], the “Ratio Tremelimumab:Ab55h of EC50” value turned out to be 1.7 fold. The results for the “Ratio Ipilimumab:Ab55h of IC50” value in [11] and in [12] were 3 fold and 2.2 fold, respectively. The “Ratio Tremelimumab:Ab55h of IC50” value in assay [13] came to 1.6 fold.
